From a protein production outcome set (Wang et al. 2014)

assay: label from the status in PepcDB records
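Further: failed if final PepcDB status was selected cloned or expressed and not failed if soluble or beyond.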

For “MSASRILTAFGLTGALVTAGVAQAGIVYIPEGSADSVLMVESETGQPVGRISGVEAVHGLAGAPGTPYLVAGSYSEIDPESAAQTARPEGVSQADHNAHHAKPAKAAMPTDKGLSLVSVIDAGTGEVVRRIEVPGAVHHTAVSPDGRWAMATHPGGDGVSLIDLSTLEYAGFIATGPMPNYVSFSPDNSRAYVSNAGNGTLSELDLDRRILSRNLLAGEGPEHFALSRDGATVFVADAEAGRVLRLDIASGAETASYGFGAELHGLDLSEREDTLFVAVKGADQVAAVDLASGAVRLQELAPAPYHLTVADGGETLFVSSREASMVWAVDQVSLRVTAEIGIEGEGHQMVVLP”, which protein production is on record?
Its protein production is “failed”.

With “MSASTGASVIDLYHQAQDYFFVSISQFYRRFGSGLSAYCTGVEASSLNLLMMNVCAVDEPGALAEGVAFLQRTGMPFCVVVPEALVPRVSGQLHQQHLLAADKTTCMVLDLTRHEPRQALAAQAQVRCSDLRLEDWAQPVQSAFESGEGGIEQYLARHRAALSAGRALSHFTLYVEERPVSALTLSLLPGLARLDDIGTVQDCQGQGYATALIQAVLAFARARGARTCVLEASLDGLSIYRKAGFEALFDYRTFCQE” as the sequence, how does the protein production read?
The protein production was “failed”.

For “MSATGLEVFDRTLHKTHAWLKAIMEELGTEDRHKAYLALRAVLHALRDRLTVEEVAQLAAQLPMLVRGLYYEGWDPTGKPLKERHKEAFLAHVAEELKTPSGPAVDPEAATRAVFKVLSREISQGELEDVLGLLPKELRALWPQG”, which protein production is on record?
The protein production was “not failed”.

With “MSATYQLALQQLTDSALPTGAFAHSLGFESYIHRGLVRDESTFSTWLQAFVSQQLSYSDGLALRFLFEGVDVGLLDGVLSAQLLAREVREASLKMGGRLLEIGGEVFPSAELEAYRGLVRAGSASGHQPLAFGVIARSLGVPLEEALSAYLFATVTSLTQNAVRAIPLGQNAGQRVLRQAHDAVAAAIHVVAQLCWDDFGAVSPGLEISQMRHERQRARMFMS” as the sequence, how does the protein production read?
Its protein production is “failed”.

Which protein production does the source give for “MSAYPPGAAPSDPVDPVTLEAGQTAKVTRPTGRFMLGHPARLIALGFGSGLSPVSPGTVGTLLGWLSFIVISKWIDPTTWLWIIAGGFVIGIWACLRTARDMGVYDHGSMVWDEIVAFWLVLLFVMPTGFWGQFAAFVWFRFFDIVKPAPIRYYDRTLKGPGFTGAFGVMFDDIFAAFYTLLVFALWRSI” here?
The protein production was “failed”.

For “MSCRHGTTRCRSLCDYGGLSMQYVNTCPVLNVEECDRLSFMPYLFGTDFMLAELQVYALAKKWMPGYEGGFWHFIRLPEGGGYMMPDCGRVHLVSSENWFDRTVSADAAGIILTSLAINRRLAAHHDSSNPALTRLYMLRDAQLWNHITFHPECSAIYAALD”, which protein production is on record?
Its protein production is “failed”.

With “MSCTNRVPGILMCEIFIRANQRSYSVQARSLRLHGVATSVRLEQLFWDVLEEIAARDGMRVTQLIERLYDELVQYRGEAANFTSFLRVCCLRYQVLQAEGRIPADATVPIRSLDAQAVLRGLPANLYDSRPLG” as the sequence, how does the protein production read?
Its protein production is “failed”.

For “MSCYNKALLIGNKVVVILVFLLCLVHSSESLRPLFACDPANGLTRTLRFCRANVPIHVRVQDLLGRLTLQEKIRNLVNNAAAVPRLGIGGYEWWSEALHGISDVGPGAKFGGAFPGATSFPQVITTAASFNQSLWEEIGRVVSDEARAMYNGGVAGLTYWSPNVNILRDPRWGRGQETPGEDPIVAAKYAASYVRGLQGTAAGNRLKVAACCKHYTAYDLDNWNGVDRFHFNAKVTQQDLEDTYNVPFKSCVYEGKVASVMCSYNQVNGKPTCADENLLKNTIRGQWRLNGYIVSDCDSVDVFFNQQHYTSTPEEAAARSIKAGLDLDCGPFLAIFTEGAVKKGLLTENDINLALANTLTVQMRLGMFDGNLGPYANLGPRDVCTPAHKHLALEAAHQGIVLLKNSARSLPLSPRRHRTVAVIGPNSDVTETMIGNYAGKACAYTSPLQGISRYARTLHQAGCAGVACKGNQGFGAAEAAAREADATVLVMGLDQSIEAETRDRTGLLLPGYQQDLVTRVAQASRGPVILVLMSGGPIDVTFAKNDPRVAAIIWAGYPGQAGGAAIANIIFGAANPGGKLPMTWYPQDYVAKVPMTVMAMRASGNYPGRTYRFYKGPVVFPFGFGLSYTTFTHSLAKSPLAQLSVSLSNLNSANTILNSSSHSIKVSHTNCNSFPKMPLHVEVSNTGEFDGTHTVFVFAEPPINGIKGLGVNKQLIAFEKVHVMAGAKQTVQVDVDACKHLGVVDEYGKRRIPMGEHKLHIGDLKHTILVQPQL”, which protein production is on record?
Its protein production is “failed”.

For “MSDAAISCSWKPFFRELATRLLDYEDRQPELLAALRDASISINHDEGEPLREVDPFTFFSLVLKHTSDATALPLFARVGAALGVQAPSPTDLIGVPWSNPMNAWFFAYRSQRQPGDVPLLWRLARQAVAGILDAQTFEDALKIRKVALPKLTQGLFWLNPERFLALNAVNVPYLQARGLQAAGQVQTLAEYETVLEAAHKLNPDFAALSHRAWLNSQTAALEGNHFPFARYQADAQEFAGDKVKGNLVLDRRYAPLLLDLMAGEWETLKPSRSPYSGREQLAVKVALGGGVKTDGGAFARALLFADDSGFEYVPFSAGLTLEAGLPDGRGDGPRQALQEPARQHTLLTALNAPLPAGLEATLTLNTDFGALFLLPLGPGREAEAAQQLQQYMSGVGRSRRLRVGLSLLPEHLESDKFPELLDAALTYLDALVDLLDGLMRPSEETSTEEIGVPGTRPVAPTPAAFVPVPGVPLNQILYGPPGTGKTYRVVDEALSVLDPAFLSAHPGSEGRAARKARYDELAAQGQISFVTFHQSFGYEDFIEGIKPVMSGGALSYVLQDGVFLEAVRSAGGALAPAAPEAGPSTETQPLVRPDAQVWRMYIDGTAPVSRIRDLSLGRGELRMGSYGKPPRDLTQAGVEDLSGRQLLFKESVRVGDLMLLATAADRIGAVGVVTGDYRFDPHSDPTFATDYAHTRSVKWLAQDLNVGATETLGKSFAPPTLQRVADVTPAQVLQALGVSTAGGETAHAPTPRPHVLIIDEINRGNISKIFGELITLLESGKRTGAPEALTVTLPLSRRPLSVPQSLYVIGTMNTADRSLTLLDAALRRRFVFRPVWPQPEVLPVLDLGGTALDLRKFLHVINDRIERLLSREQVIGHAYLLGLPATLGGVSSALRERILPLLEEYFFEDWSKIREVLGDESKAEALQFIHRSGSGPELRYRLNPEAFENIEAFTGVYAGVSDQDFPFDA”, which protein production is on record?
Its protein production is “failed”.

For “MSDAMPLDQTLEQLTQDEWIDIPQGWSQGRTIYGGLVAGLLMHKALSVMNDESKNLLSTSITFVGPVNEGRVRLTVEILRQGKSVTTIEARLWQDQAVQTILIASFGQPRSSEIFVLNLPEAPDYLSPEQFSRMPFVKMMPECYQQFDLRWAEGHYPMTQQAPDFGGWCRYDIQKHSPRALNVADLLILMDIWPPGVLPMFQTIAPASSLTWHLTFVRPVAYELHDWFKYQVVTQHAAFGYATEYAHLWDAQNRLIAISRQTVTVFA”, which protein production is on record?
The protein production was “failed”.

Which protein production does the source give for “MSDAPVCERNPFLGMWSMVTRKTASGASLGAGQAITPLEAMRCYTANPARAEGQAARKGTLSPGKLADLIVLDRDPCAVDPDEIRHTQVLATLVGGQATYRAAGAPLEHHHHHH” here?
Its protein production is “failed”.

With “MSDAQLGPLRLTLLSVSARTGFCKKQQELWQRRKEAAEALGTRKVSVLLATSHSGARPAVSTMDSSAAPTNASNCTDALAYSSCSPAPSPGSWVNLSHLDGNLSDPCGPNRTDLGGRDSLCPPTGSPSMITAITIMALYSIVCVVGLFGNFLVMYVIVRYTKMKTATNIYIFNLALADALATSTLPFQSVNYLMGTWPFGTILCKIVISIDYYNMFTSIFTLCTMSVDRYIAVCHPVKALDFRTPRNAKIINVCNWILSSAIGLPVMFMATTKYRQGSIDCTLTFSHPTWYWENLLKICVFIFAFIMPVLIITVCYGLMILRLKSVRMLSGSKEKDRNLRRITRMVLVVVAVFIVCWTPIHIYVIIKALVTIPETTFQTVSWHFCIALGYTNSCLNPVLYAFLDENFKRCFREFCIPTSSNIEQQNSTRIRQNTRDHPSTANTVDRTNHQVRSL” as the sequence, how does the protein production read?
The protein production was “failed”.

For “MSDDEIGDGARAFNQLIQALSLSIETETAVRTFTEMLVSELDVHQLTEQALALLLQHTGADGGAILIEVDGEIRVAASQGIGSAHTLANNDRVRSALRTERRHRVQLPEDLVVDGMLAQFRPKEVIIDPVRHKEVVLGAVVLASGQGFSAEDRNRLDVFERGLALALHNALLYDRLQTLAALDPLEHHHHHH”, which protein production is on record?
Its protein production is “failed”.

With “MSDGPLLNDVTRAFAEAHRNEDVRDLALKTKRTADLDLPAALDQIAGWQIARNKLPQWAACADIVYPAHISMEQCSSQFTAQYKAEIARRLLRSLPQSAGQTANDATMTDLTGGFGVDFSYLARGFGHATYVERQSHLCELAAHNMAALGLTQAQVVCGDGVEYLRAMEPAQLIYIDPARRDEHGARTYAIEDCTPDVLALRDLLLAKARYVMIKLSPMLDWRKAVDDFAGTVAEVHIVSTGNECKELLLVLDGKAAGATSDAAAADTRAPHVYCVNDDQRLDYDAAAYTRGLRIGDAPLPHELRYLYEPNASIMKAGCFDVVEARFGAVQIGPSSHLFVSDEPVDGFPGRGFAIETIGGMGKKELKRLLSGLDRANIAVRNFPLTAPQLRKKLKLADGGDAYLFGTTMQGGDHVLIRTAKISR” as the sequence, how does the protein production read?
Its protein production is “failed”.

With “MSDHEAGHKFLARLGKKRLRPGGRKATEWLLSQAAFRQDSVVLEVACNMGTTAMEIARRFGCKVIGADMDKAALQKAQENVAANGLASQVTIMQANALELPFPDNHFDVVINEAMLTMYADKAKSRIIAEYYRVLKPGGRLITHDIMLLSEKDTGALQAVEQMHKAINVHAQPMLRERWVTLFQECGFSKVNYDNGAMTLLTPQGLIYDEGVAGAARIVKNALKKENRSMFFNMFHTFRRNRNQLNYIAVCSTK” as the sequence, how does the protein production read?
Its protein production is “failed”.

With “MSDHPGSNAANPPPVPGAPALRTRRFNVSLVWLVPIVAALVGLSMVVHNSLSAGPEISISFQTAEGLEANKTQVKYKNVVIGKVTSIALSDDRKKVVAKVELDQSAEPFTADDSLFWVVRPRIGANGISGVDTLLSGAFIGADAGKSEKRKDSFKGLETPPPITYGQKGKRFTLHTDDLGSLDIGSPVYYRRIEVGQVVSYQLANSGKGVDVKIFVNSPNDKYVTTDTRFWNASGVDVTLGANGLKVNTESVSSILAGGIAFVEPKYSPNAKPADENAEYTLFGDQDTALAPPDGAPYYIRMRFDQALRGLSVNAPVEFLGVNIGKVVSMDLDYDEQRKYFPTLVGAVIYPERLGKAHEKLVKQTGGEDDVRSAKLIGAFVKNGLRAQPRSGNLLTGQLYISLDFVTNAKPVAYDATARPLEIPTVPGSMDKLQEQLQAVVDKISKLPIDSIAANLNGSLAEMQKTLKQVNGEVLPQMRDTLEQSKKTLASANESFSEDSPQRQKLGQAMEEVQRTARSVRVLSDFLGRHPEALIRGRLKDNQPDAYQSPSSSVRESVPEAQP” as the sequence, how does the protein production read?
The protein production was “failed”.

Which protein production does the source give for “MSDICVIIAAYNAEATIAQAVTSALAEAEVAEVVVVDDASSDATAEAALAASDGSGRLIVERQAQNGGPSAARNRAVALSQAPRIAILDADDFFLPGRFARLDPDLDLAADNIVFVTPEHAARLDPTNLPAAPREVEMLDAERFALGNLAQGVHRGELGFLKPVMSRAFLTRHGLRYDERMWLGEDFDLYMRMLLLGARFGLTRAVGYAAVQRGASLSGRHRTADLAALEACCRAHLEMPASPATQEAMRRHLRQVQAKLLLRQFLDRKAEAGLGAALGFALAPPARFLPIAKGVARDKIAALRPPAPPRAERFLLPVLEHHHHHH” here?
Its protein production is “failed”.

With “MSDIHKKIKKKQFAPLYLLYGTEAFFINETIKLITTEALEEEDREFNVVTYDLEEAYLEDVVEDARTLPFFGERKVLLIKSPLFLTSQKEKLEQNIKILEEYIGEPSPFSILVFVAPYEKLDERKKITKLLKKTADIVEANAMQVQDVQKWIVARAEEGHVHIDNAAVSLLLELVGSNVTMLAKEMDKLTLYVGMGGEITPKLVAELVPKSVEQNVFALTEKVVKKDIAGAMQILDGLFTQQEEPIKLLALLVSQFRLLHQVKELQQRGYGQNQIASHIGVHPYRVKLAMNQTKFFSFEELKKVIIELAEADYSMKTGKMDKKLVLEFFLMRLNHM” as the sequence, how does the protein production read?
The protein production was “failed”.
